Values of other authors in article PMC8625536.

Target: Glu89 (UniProt position 105, IDALNENKVLV)
Details: Native folded protein; EF loop closed-to-open (Tanford) transition

In the case of “beta-lactoglobulin (called BBL in the article) (Bos taurus)”, the pKa is listed as about 7.3.
